Biological target: T1, Pol2CORE P301R (DNA polymerase epsilon catalytic core) (Saccharomyces cerevisiae, UniProt P21951 1-1187, P301R)
T1 sequence: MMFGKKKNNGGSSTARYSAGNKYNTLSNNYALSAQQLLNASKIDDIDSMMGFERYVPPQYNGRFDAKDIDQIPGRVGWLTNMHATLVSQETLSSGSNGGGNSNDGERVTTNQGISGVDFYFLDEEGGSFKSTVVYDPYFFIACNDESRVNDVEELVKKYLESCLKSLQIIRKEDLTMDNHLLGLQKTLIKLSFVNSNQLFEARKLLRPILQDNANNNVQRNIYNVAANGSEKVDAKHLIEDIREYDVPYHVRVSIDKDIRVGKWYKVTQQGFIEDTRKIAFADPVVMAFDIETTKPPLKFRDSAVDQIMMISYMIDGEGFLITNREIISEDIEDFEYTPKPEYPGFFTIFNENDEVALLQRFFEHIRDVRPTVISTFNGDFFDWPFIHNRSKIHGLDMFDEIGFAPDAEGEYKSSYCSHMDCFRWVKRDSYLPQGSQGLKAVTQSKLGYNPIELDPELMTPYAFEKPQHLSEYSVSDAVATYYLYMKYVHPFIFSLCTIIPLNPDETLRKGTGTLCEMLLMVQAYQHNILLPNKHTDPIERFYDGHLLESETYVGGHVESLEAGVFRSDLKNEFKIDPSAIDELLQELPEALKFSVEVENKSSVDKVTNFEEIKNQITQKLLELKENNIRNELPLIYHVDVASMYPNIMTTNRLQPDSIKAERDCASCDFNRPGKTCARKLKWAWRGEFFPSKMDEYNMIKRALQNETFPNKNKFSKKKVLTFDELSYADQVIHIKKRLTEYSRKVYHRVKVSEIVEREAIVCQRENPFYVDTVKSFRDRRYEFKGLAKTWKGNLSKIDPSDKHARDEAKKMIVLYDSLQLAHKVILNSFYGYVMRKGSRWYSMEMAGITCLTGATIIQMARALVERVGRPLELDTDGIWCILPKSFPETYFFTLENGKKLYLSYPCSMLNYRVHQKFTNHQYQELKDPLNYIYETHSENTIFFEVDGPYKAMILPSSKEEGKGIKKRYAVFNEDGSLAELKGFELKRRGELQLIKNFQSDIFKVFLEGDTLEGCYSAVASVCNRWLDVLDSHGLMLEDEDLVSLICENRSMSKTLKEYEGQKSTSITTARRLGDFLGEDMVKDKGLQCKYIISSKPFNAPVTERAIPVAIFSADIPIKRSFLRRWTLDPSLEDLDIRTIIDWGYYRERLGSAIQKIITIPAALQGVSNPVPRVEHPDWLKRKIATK
Experiment: X-ray crystallography; incoming dNTP; Ca2+ in exonuclease A-site; Crystallization conditions not in the material; protein stored in 25 mM Tris-Ac pH 7.5, 10% glycerol, 800 mM NaAc
Details: protein: recombinant; tags: 6xHis removed with PreScission protease; 5' overhang 5 nt on template (recessed primer 3' end)

B1: KP11ddC/KT16 primer-template (dsDNA)
DNA 1: TAACCGCGTTC
DNA 2: CTCTTGAACGCGGTTA
modifications: 3'-terminal dideoxy-C on primer
- binding result: binds

Source: PMC6342957, “Structural consequence of the most frequently recurring cancer-associated substitution in DNA polymerase ε”
